Broadly, the Kd is the concentration at which binding is half-saturated. A lower Kd goes with higher affinity.

The target in test [1] is HLA-A*03:01. As to the kind of experiment: IEDB peptide-MHC binding, purified MHC/competitive/fluorescence; filed as Kd, often an IC50 or EC50 that approximates it; ≥ and ≤ were set here for values at or beyond the usual limits of such assays. To be noted: source organism: Vibrio vulnificus YJ016.
In test [2] the target is HLA-A*02:12. The description is as above. Conditions: source organism: Vibrio vulnificus YJ016.
The target of test [3] is HLA-B*39:01. The description is as above. Conditions: source organism: Vibrio vulnificus YJ016.
In test [4] the target is HLA-B*46:01. Described as above. To be noted: source organism: Vibrio vulnificus YJ016.
For test [5], the target named is HLA-A*02:03. The test is described as above. Conditions: source organism: Vibrio vulnificus YJ016.
Test [6] deals with HLA-A*02:19. Described as above. Conditions: source organism: Vibrio vulnificus YJ016.
The target of test [7] is HLA-B*18:01. Described as above. Conditions: source organism: Vibrio vulnificus YJ016.
Test [8] concerns the target HLA-A*02:16. The description is as above. Conditions: source organism: Vibrio vulnificus YJ016.
The target of test [9] is HLA-B*27:03. Described as above. Conditions: source organism: Vibrio vulnificus YJ016.
The target in test [10] is HLA-A*29:02. Described as above. Conditions: source organism: Vibrio vulnificus YJ016.
The target in test [11] is HLA-A*23:01. The description is as above. Conditions: source organism: Vibrio vulnificus YJ016.
The target in test [12] is HLA-A*24:03. The description is as above. Conditions: source organism: Vibrio vulnificus YJ016.
For test [13], the target named is HLA-A*02:01. The test is described as above. To be noted: source organism: Vibrio vulnificus YJ016.
In a further test the target is HLA-A*02:11. The test is described as above. Conditions: source organism: Vibrio vulnificus YJ016.
Test [14] addresses HLA-A*69:01. The description is as above. To be noted: source organism: Vibrio vulnificus YJ016.
Another test has as its target HLA-B*48:01. The test is described as above.
A further test addresses HLA-C*04:01. Description: IEDB peptide-MHC binding, purified MHC/direct/fluorescence; filed as Kd, often an IC50 or EC50 that approximates it; ≥ and ≤ were set here for values at or beyond the usual limits of such assays.
The target of test [15] is HLA-A*24:03. The description is as above.
The target in the next test is HLA-A*26:01. The test is described as above.
The target of test [16] is HLA-A*03:01. Described as above.
Test [17] has as its target HLA-A*02:12. The test is described as above.
In test [18] the target is HLA-B*46:01. The description is as above.
In test [19] the target is HLA-A*02:03. The description is as above.
In test [20] the target is HLA-A*02:19. The test is described as above.
Test [21] addresses HLA-B*18:01. The description is as above.
The next test has as its target HLA-A*68:02. The test is described as above.
The target in test [22] is HLA-A*02:16. The test is described as above.
Another test has as its target HLA-B*15:01. Described as above.
The target in test [23] is HLA-B*27:03. The test is described as above.
Test [24] deals with HLA-A*02:01. Described as above.
A further test deals with HLA-B*57:01. Described as above.
The target in the next test is HLA-B*51:01. Described as above.
For the next test, the target named is HLA-B*15:17. The description is as above.
In test [25] the target is HLA-A*29:02. The test is described as above. To be noted: source organism: Brucella suis 1330.
For test [26], the target named is HLA-A*23:01. Described as above. To be noted: source organism: Brucella suis 1330.
For test [27], the target named is HLA-A*69:01. The description is as above.
Test [28] has as its target HLA-B*39:01. The test is described as above. To be noted: source organism: Camelpox virus M-96.
In a further test the target is HLA-B*27:05. Described as above. Conditions: source organism: Camelpox virus M-96.
In a further test the target is HLA-B*58:01. The test is described as above. Conditions: source organism: Camelpox virus M-96.
For the next test, the target named is HLA-A*01:01. The test is described as above. To be noted: source organism: Camelpox virus M-96.
Another test has as its target HLA-B*07:02. Described as above. To be noted: source organism: Camelpox virus M-96.
Another test has as its target HLA-B*35:01. As to the kind of experiment: IEDB peptide-MHC binding, purified MHC/competitive/fluorescence; filed as Kd, often an IC50 or EC50 that approximates it; ≥ and ≤ were set here for values at or beyond the usual limits of such assays. Conditions: source organism: Vaccinia virus L-IPV.
In a further test the target is HLA-B*40:01. Described as above. Conditions: source organism: Vaccinia virus L-IPV.
Setting [29] is: source organism: Vibrio cholerae V52.
Where [30] appears, read: source organism: Brucella suis 1330.
Where [31] appears, read: source organism: Camelpox virus M-96.

As to HTSALSLGY, the equilibrium dissociation constant (Kd) is 0.0179 µM with HLA-A*03:01 [1]; at least 20 µM in the test with HLA-A*02:12 [2]; at least 20 µM with HLA-B*39:01 [3]; at least 20 µM in the test with HLA-B*46:01 [4]; at least 20 µM in the test with HLA-A*02:03 [5]; at least 20 µM with HLA-A*02:19 [6]. Besides, the Kd with HLA-B*18:01 [7] is at least 20 µM; with HLA-A*02:16 [8] it was at least 20 µM; in the test with HLA-B*27:03 [9] it was at least 20 µM; with HLA-A*29:02 [10], at most 0.0001 µM; in the test with HLA-A*23:01 [11], at least 20 µM; in the test with HLA-A*24:03 [12], at least 20 µM. Moreover, the dissociation constant Kd in the test with HLA-A*02:01 [13], with HLA-A*02:11 and with HLA-A*69:01 [14] was at least 20 µM each time.

With KRAAAGIMK, in the test with HLA-B*48:01 (source organism: Dengue virus 2 Thailand/NGS-C/1944), the Kd is at least 20 µM.

As for LFPELDCFF, the dissociation constant Kd with HLA-C*04:01 (source organism: Kurkino virus) was at least 20 µM; in the test with HLA-A*24:03 [15] (source organism: Orthohantavirus dobravaense) it was 0.011 µM.

Consider LPYPVLLKI, for which the Kd with HLA-A*26:01 (setting [29]), with HLA-A*03:01 [16] (setting [29]), with HLA-A*02:12 [17] (setting [29]), with HLA-B*46:01 [18] (setting [29]), with HLA-A*02:03 [19] (setting [29]) and with HLA-A*02:19 [20] (setting [29]) was at least 20 µM in each case. The Kd in the test with HLA-B*18:01 [21] (setting [29]), with HLA-A*68:02 (setting [29]), with HLA-A*02:16 [22] (setting [29]), with HLA-B*15:01 (setting [29]), with HLA-B*27:03 [23] (setting [29]) and with HLA-A*02:01 [24] (setting [29]) was at least 20 µM each time. Besides, the Kd was at least 20 µM with HLA-B*57:01 (setting [29]) and 0.054 µM in the test with HLA-B*51:01 (setting [29]).

Consider MHCDFAFWV, for which the Kd with HLA-A*26:01 (setting [30]), with HLA-A*03:01 [16] (setting [30]), with HLA-A*02:12 [17] (setting [30]), with HLA-B*46:01 [18] (setting [30]), with HLA-B*15:17 (setting [30]) and in the test with HLA-A*02:03 [19] (setting [30]) was at least 20 µM in each case. For the same sequence, the Kd with HLA-A*02:19 [20] (setting [30]), in the test with HLA-B*18:01 [21] (setting [30]), with HLA-A*68:02 (setting [30]), in the test with HLA-A*02:16 [22] (setting [30]), with HLA-B*15:01 (setting [30]) and with HLA-B*27:03 [23] (setting [30]) was at least 20 µM each time. Further, the equilibrium dissociation constant (Kd) in the test with HLA-A*29:02 [25], in the test with HLA-A*23:01 [26], in the test with HLA-A*24:03 [15] (setting [30]), with HLA-A*02:01 [24] (setting [30]), with HLA-A*69:01 [27] (setting [30]) and with HLA-B*57:01 (setting [30]) was at least 20 µM in each case. This sequence registered a dissociation constant Kd in the test with HLA-B*51:01 (setting [30]) of at least 20 µM.

In the test with HLA-C*04:01 (source organism: Yellow fever virus), MYMALIAAF yielded an equilibrium dissociation constant (Kd) of at least 20 µM.

RRLRTLVLA: the Kd with HLA-B*48:01 (source organism: Tick-borne encephalitis virus) was at least 20 µM.

For the sequence SHEQGDIAL, the dissociation constant Kd was 0.0925 µM in the test with HLA-B*39:01 [28]; at least 20 µM in the test with HLA-B*27:05; at least 20 µM with HLA-B*15:17 (setting [31]); at least 20 µM in the test with HLA-B*58:01; at least 20 µM in the test with HLA-A*01:01; at least 20 µM in the test with HLA-B*18:01 [21] (setting [31]). In addition, the dissociation constant (Kd) with HLA-A*68:02 (setting [31]), in the test with HLA-B*15:01 (setting [31]), in the test with HLA-A*02:01 [24] (setting [31]), with HLA-A*69:01 [27] (setting [31]), in the test with HLA-B*07:02 and in the test with HLA-B*57:01 (setting [31]) was at least 20 µM each time. Besides, the Kd is 2.3 µM with HLA-B*35:01, at least 20 µM in the test with HLA-B*48:01 (source organism: Vaccinia virus L-IPV) and at least 20 µM in the test with HLA-B*40:01.

These data come from the Immune Epitope Database (IEDB).
